Experimental data as given in patent US20230340055A1 (published 2023).

Tests used:
[1] = target: T1, IL-2Rβγ (dimeric intermediate affinity IL-2 receptor), human, on cells (human, UniProt P14784 27-551; P31785 23-369); test: cell-based or functional assay
T1 sequence (looked up) 1: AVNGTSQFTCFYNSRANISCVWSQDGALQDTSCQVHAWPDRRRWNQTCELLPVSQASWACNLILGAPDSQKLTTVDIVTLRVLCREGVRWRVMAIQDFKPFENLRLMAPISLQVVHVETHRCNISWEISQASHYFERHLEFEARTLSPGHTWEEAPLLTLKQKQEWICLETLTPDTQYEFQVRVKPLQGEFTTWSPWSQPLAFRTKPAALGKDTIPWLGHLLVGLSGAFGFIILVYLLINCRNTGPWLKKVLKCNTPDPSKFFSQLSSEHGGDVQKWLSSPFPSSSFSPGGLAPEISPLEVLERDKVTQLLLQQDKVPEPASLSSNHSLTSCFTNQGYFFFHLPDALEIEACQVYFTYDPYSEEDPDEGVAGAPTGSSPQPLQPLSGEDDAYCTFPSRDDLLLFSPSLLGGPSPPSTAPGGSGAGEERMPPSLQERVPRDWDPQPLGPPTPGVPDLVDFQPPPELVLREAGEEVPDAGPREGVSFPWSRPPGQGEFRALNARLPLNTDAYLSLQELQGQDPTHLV
T1 sequence (looked up) 2: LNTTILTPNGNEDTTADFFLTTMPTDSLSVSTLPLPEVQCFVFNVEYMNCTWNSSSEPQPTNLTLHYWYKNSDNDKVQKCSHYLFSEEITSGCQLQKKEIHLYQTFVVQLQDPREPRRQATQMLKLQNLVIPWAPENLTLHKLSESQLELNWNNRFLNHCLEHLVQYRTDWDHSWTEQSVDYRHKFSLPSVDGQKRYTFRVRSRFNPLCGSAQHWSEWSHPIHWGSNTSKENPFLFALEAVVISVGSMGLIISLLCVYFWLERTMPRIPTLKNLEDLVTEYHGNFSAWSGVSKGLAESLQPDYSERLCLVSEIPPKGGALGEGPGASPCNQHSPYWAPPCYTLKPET

[2] = target: T2, IL-2-Rα/β/γ on the murine CTLL-2 T lymphocyte cell line (murine, UniProt P01590 22-268; P16297 27-539; P34902 23-369); test: cell-based or functional assay
T2 sequence (looked up) 1: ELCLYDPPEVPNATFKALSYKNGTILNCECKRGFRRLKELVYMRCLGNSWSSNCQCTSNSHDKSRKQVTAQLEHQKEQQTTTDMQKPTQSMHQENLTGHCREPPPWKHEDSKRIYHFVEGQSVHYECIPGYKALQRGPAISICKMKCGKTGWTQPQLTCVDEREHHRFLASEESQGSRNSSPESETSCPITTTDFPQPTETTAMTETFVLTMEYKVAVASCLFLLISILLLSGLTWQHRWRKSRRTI
T2 sequence (looked up) 2: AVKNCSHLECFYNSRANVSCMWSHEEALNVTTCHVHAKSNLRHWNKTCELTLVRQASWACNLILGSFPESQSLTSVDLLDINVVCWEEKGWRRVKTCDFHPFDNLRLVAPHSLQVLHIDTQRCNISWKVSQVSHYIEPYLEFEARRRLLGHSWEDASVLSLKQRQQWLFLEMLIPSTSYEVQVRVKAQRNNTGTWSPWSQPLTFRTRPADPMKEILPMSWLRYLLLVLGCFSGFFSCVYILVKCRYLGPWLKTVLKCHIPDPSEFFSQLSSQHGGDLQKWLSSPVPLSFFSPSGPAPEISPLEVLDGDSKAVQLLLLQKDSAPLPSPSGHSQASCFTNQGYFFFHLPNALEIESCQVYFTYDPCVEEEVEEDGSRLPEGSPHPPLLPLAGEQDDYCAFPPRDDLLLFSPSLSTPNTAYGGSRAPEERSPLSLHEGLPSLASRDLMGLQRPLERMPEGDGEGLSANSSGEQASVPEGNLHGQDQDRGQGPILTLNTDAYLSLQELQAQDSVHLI
T2 sequence (looked up) 3: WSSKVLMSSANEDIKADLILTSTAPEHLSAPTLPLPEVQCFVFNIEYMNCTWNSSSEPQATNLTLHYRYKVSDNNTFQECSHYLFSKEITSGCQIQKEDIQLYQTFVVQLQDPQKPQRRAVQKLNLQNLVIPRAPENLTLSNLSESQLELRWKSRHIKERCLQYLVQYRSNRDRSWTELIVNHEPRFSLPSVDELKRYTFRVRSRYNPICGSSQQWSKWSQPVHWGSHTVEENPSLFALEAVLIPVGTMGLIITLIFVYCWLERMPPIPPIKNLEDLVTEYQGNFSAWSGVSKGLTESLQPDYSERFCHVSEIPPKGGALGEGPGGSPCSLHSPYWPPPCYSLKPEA

[3] = target: T1, IL-2Rβγ (dimeric intermediate affinity …); test: cell-based or functional assay; remark: listed apart in the source
[4] = target: T3, Human IL-2 Receptor alpha, Fc-Tag (Symansis, New Zealand) (human, UniProt P01589 22-240); test: SPR; KD to IL-2Rα divided by KD to IL-2Rβ of the same compound
T3 construct: extracellular domain; Bought reagent; also called IL-2Rα; IL-2Rα-Fc; not shown: Fc-Tag (captured by anti-human IgG (Fc) antibody)
T3 sequence (looked up): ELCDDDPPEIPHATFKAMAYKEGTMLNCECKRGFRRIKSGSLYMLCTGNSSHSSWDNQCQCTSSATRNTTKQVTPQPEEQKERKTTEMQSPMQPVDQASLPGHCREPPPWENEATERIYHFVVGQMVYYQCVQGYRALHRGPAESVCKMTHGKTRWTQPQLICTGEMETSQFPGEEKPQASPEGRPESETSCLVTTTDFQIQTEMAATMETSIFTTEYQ
Experimental: For the determination of binding kinetics to IL-2Rα the following chip preparation was used: Human IL-2 Receptor alpha, Fc-Tag (Symansis, New Zealand) was diluted in HBS-EP running buffer (GE Healthcare, 10 mM HEPES, 150 mM NaCl, 3 mM EDTA, 0.05% Surfactant P20, pH 7.4) to approx. 0.25 µg/mL and immobilized at a flow rate of 50 µL/min for 60 s to achieve 90 - 110 response units (RU).
For the determination of binding kinetics to IL-2Rβ the following chip preparation was used: Human IL-2 Receptor beta, Fc-Tag (Symansis, New Zealand) was diluted in HBS-EP running buffer (GE Healthcare, 10 mM HEPES, 150 mM NaCl, 3 mM EDTA, 0.05% Surfactant P20, pH 7.4) to around 0.25 µg/mL and immobilized at a flow rate of 50 µL/min for 60 s to achieve 300 - 330 response units (RU).
(50 µL/min flow rate, 60 s contact time, 300 s dissociation time). Double referenced data (subtracted data from the reference flow cell and the buffer only samples) was analysed via a kinetic fit (1:1 binding model) to determine KD, kₐ and kd. Regeneration after each cycle was performed with 3 M MgCl₂.

B1: protein 6 (ligand)
chain: APTSSSTKKTQLQLEHLLLDLQMILNGINNYKNPKLTFGNSTKFYMPKKATELKHLQCLEEELKPLEEVLNLAQSKNFHLRPRDLISNINVIVLELKGSETTFMCEYADETATIVEFLNRWITFSQSIISTLT
modifications: glycosylated (same sequence with the N-glycosylation motif FGNST as protein 1f); glycan sites not analysed separately for protein 6
With B1 the “EC50, pSTAT5 MFI, CD8 (human PBMCs)” value [1] was 78.8 ng/mL, the “EC50, pSTAT5 MFI, NK (human PBMCs)” value [1] was 11.7 ng/mL and the “EC50 CTLL-2, STAT5 phosphorylation” value [2] was 3.39 µg/mL. For the same binder, the “Ratio (E50 CTLL-2 cells/EC50 HH cell)” value [2] was 35.1, the “EC50 HH cells, STAT5 phosphorylation” value [3] was 0.0966 µg/mL and the “KD-Ratio (α/β)” value [4] was > 2.7.
